Substitutions are numbered along the chain they refer to. Numbers in names are those of the source.
T1: apelin receptor (AGTRL1) on CHO-K1 cells (UniProt P35414 1-380, limits assumed)
T1 sequence (looked up): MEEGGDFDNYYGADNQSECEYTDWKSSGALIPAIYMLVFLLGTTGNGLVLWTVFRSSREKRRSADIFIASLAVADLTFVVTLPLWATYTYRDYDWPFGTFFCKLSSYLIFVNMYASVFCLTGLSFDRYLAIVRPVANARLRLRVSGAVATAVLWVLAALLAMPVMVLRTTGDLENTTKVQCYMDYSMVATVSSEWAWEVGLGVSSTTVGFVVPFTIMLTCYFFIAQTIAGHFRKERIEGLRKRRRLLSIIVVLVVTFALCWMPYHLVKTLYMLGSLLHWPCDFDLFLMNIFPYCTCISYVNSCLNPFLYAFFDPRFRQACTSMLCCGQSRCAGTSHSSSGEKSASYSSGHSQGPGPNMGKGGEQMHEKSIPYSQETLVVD

T2: APJ-eGFP fusion protein on CHO-M1 cells (UniProt P35414 1-380)
T2 sequence (looked up): T1 sequence (looked up)

B1: ELA-A (Fc fusion)
chain: DKTHTSPPSPAPEAAGGPSVFLFPPKPKDTLMISRTPEVTCVVVDVSHEDPEVKFNWYVDGVEVHNAKTKPREEQYNSTYRVVSVLTVLHQDWLNGKEYKCKVSNKALPAPIEKTISKAKGQPREPQVYTLPPSREEMTKNQVNLTCLVKGFYPSDIAVEWESNGQPENNYKTTPPVLDSDGSFFLNSTLTVDKSRWQQGNVFSCSVMHEALHNHYTQKSLSLSPGKGGGGSGGGGSGGGGSKLRKHNCLQRRCMPLHSRVPFP
B2: ELA-C (Fc fusion)
chain: B1 chain with P256I
B3: ELA-F (Fc fusion)
chain: B1 chain with Q251K
B4: ELA-G (Fc fusion)
chain: B1 chain with R260Y
B5: ELA-B (Fc fusion)
chain: B1 chain with R245N
B6: ELA-D (Fc fusion)
chain: B1 chain with S259Q
B7: ELA-E (Fc fusion)
chain: B1 chain with S259R
B8: APL-A (Fc fusion)
chain: DKTHTSPPSPAPEAAGGPSVFLFPPKPKDTLMISRTPEVTCVVVDVSHEDPEVKFNWYVDGVEVHNAKTKPREEQYNSTYRVVSVLTVLHQDWLNGKEYKCKVSNKALPAPIEKTISKAKGQPREPQVYTLPPSREEMTKNQVNLTCLVKGFYPSDIAVEWESNGQPENNYKTTPPVLDSDGSFFLNSTLTVDKSRWQQGNVFSCSVMHEALHNHYTQKSLSLSPGKGGGGSGGGGSGGGGSQRPRLSHKGPMPF
B9: APL-E (Fc fusion)
chain: B8 chain with M253H
B10: APL-K (Fc fusion)
chain: B8 chain with S248Q, G251N, P254A
B11: APL-G (Fc fusion)
chain: B8 chain with P254A
B12: APL-I (Fc fusion)
chain: B8 chain with M253A, P254A, F255W
B13: APL-H (Fc fusion)
chain: B8 chain with P254H, F255W
B14: APL-M (Fc fusion)
chain: B8 chain with K250W, P254A, F255W
B15: APL-F (Fc fusion)
chain: B8 chain with M253A, F255Y
B16: APL-L (Fc fusion)
chain: B8 chain with S248Q, G251N, P254A, F255W
B17: APL-J (Fc fusion)
chain: B8 chain with M253A, P254A, F255Y
B18: APL-B (Fc fusion)
chain: B8 chain with P254V
B19: APL-H: Leader-Fc-linker fusion of apelin analogue QRPRLSHKGPMHW (P12H, F13W) (protein)
chain: MRAWIFFLLCLAGRALADKTHTSPPSPAPEAAGGPSVFLFPPKPKDTLMISRTPEVTCVVVDVSHEDPEVKFNWYVDGVEVHNAKTKPREEQYNSTYRVVSVLTVLHQDWLNGKEYKCKVSNKALPAPIEKTISKAKGQPREPQVYTLPPSREEMTKNQVNLTCLVKGFYPSDIAVEWESNGQPENNYKTTPPVLDSDGSFFLNSTLTVDKSRWQQGNVFSCSVMHEALHNHYTQKSLSLSPGKGGGGSGGGGSGGGGSQRPRLSHKGPMHW
B20: APL-K: Leader-Fc-linker fusion of apelin analogue QRPRLQHKNPMAF (S6Q, G9N, P12A) (protein)
chain: B19 chain with S265Q, G268N, H271A, W272F
B21: APL-L: Leader-Fc-linker fusion of apelin analogue QRPRLQHKNPMAW (S6Q, G9N, P12A, F13W) (protein)
chain: B19 chain with S265Q, G268N, H271A
B22: APL-A: Monovalent IgG1 Fc fused via GGGGSGGGGSGGGGS linker to wild-type apelin-13 QRPRLSHKGPMPF (protein)
chain: B19 chain with H271P, W272F
B23: APL-I: Leader-Fc-linker fusion of apelin analogue QRPRLSHKGPAAW (M11A, P12A, F13W) (protein)
chain: B19 chain with M270A, H271A
B24: APL-J: Leader-Fc-linker fusion of apelin analogue QRPRLSHKGPAAY (M11A, P12A, F13Y) (protein)
chain: B19 chain with M270A, H271A, W272Y
B25: APL-M: Leader-Fc-linker fusion of apelin analogue QRPRLSHWGPMAW (K8W, P12A, F13W) (protein)
chain: B19 chain with K267W, H271A
B26: ELA-H: Fc-linker fusion of elabela analogue KLRKHNCLQRRCMPYHSRVPFP (L15Y) (protein)
chain: MRAWIFFLLCLAGRALADKTHTSPPSPAPEAAGGPSVFLFPPKPKDTLMISRTPEVTCVVVDVSHEDPEVKFNWYVDGVEVHNAKTKPREEQYNSTYRVVSVLTVLHQDWLNGKEYKCKVSNKALPAPIEKTISKAKGQPREPQVYTLPPSREEMTKNQVNLTCLVKGFYPSDIAVEWESNGQPENNYKTTPPVLDSDGSFFLNSTLTVDKSRWQQGNVFSCSVMHEALHNHYTQKSLSLSPGKGGGGSGGGGSGGGGSKLRKHNCLQRRCMPYHSRVPFP
B27: ELA-L: Fc-linker fusion of elabela analogue KLRKHNCATRRCMPLHSRVPFP (L8A, Q9T) (protein)
chain: B26 chain with L267A, Q268T, Y274L
B28: ELA-K: Fc-linker fusion of elabela analogue KLRKHNCLIRRCMPLHSRVPFP (Q9I) (protein)
chain: B26 chain with Q268I, Y274L

Biological target: T1, apelin receptor (AGTRL1) on CHO-K1 cells
Test: cell-based or functional assay
Settings: not given

Molecule	ERK EC50	beta-Arrestin EC50 (nM) Exp. 1	beta-Arrestin EC50 (nM) Exp. 2	cAMP EC50 (nM) Exp. 1	cAMP EC50 (nM) Exp. 2
B1	0.19 nM	90.1 nM	42.6 nM	0.85 nM	1.4 nM
B2	1.13 nM	535 nM	75.1 nM	0.577 nM	1 nM
B3		9.59 nM	43.5 nM	1.01 nM	1 nM
B4		89.1 nM	521 nM	9.91 nM	14.3 nM
B5	0.92 nM	1120 nM	59.9 nM	0.349 nM	1.5 nM
B6			922 nM	10.7 nM	4.4 nM
B7			352 nM	4.42 nM	2.4 nM

Biological target: T2, APJ-eGFP fusion protein on CHO-M1 cells
Test: cell-based or functional assay
Settings: not given

Molecule	Internalization Score
B1	3
B2	2
B3	3
B4	1
B5	3
B6	1
B7	0
B8	2
B9	1
B10	0
B11	3
B12	1
B13	0
B14	0
B15	1
B16	0
B17	1
B18	2

Tested on: not listed separately
Test: Proteolysis during production detected using mass spectroscopy
Type: physicochemical
Settings: proteolytic stability
Text: Proteolysis during production was detected using mass spectroscopy, which provides insights into the proteolytic stability of the apelin receptor agonists.

Molecule	Proteolysis During Production?
B19	No
B20	No
B21	No
B22	Yes
B23	No
B24	No
B25	No
B26	No
B27	No
B28	No

Tested on: APJ-eGFP fusion protein
Test: Internalization assay, CHO-M1 cells expressing APJ-eGFP, high-content imaging
Type: cell-based
Parameters: key: 0: No Internalization; >1000; 2: 100-1000; 3: 10-100; 4: <10
Settings: lowest concentration at which maximum internalization was observed; 0.914 nM to 2000 nM
Procedure: In this example, the internalization of exemplary apelin receptor agonist was assessed. CHO-M1 cells expressing an APJ-eGFP fusion protein were stained and plated in a 96-well plate. Apelin receptor agonists were serially diluted and added to the wells at concentrations ranging from 0.914 nM to 2000 nM. The cells were later imaged using an Operetta CLS™ high-content analysis system. APJ-eGFP signal was measured in the membrane and cytoplasmic region, and the ratio of membrane signal to total signal was calculated (E ratio). An internalization score was assigned based on the lowest concentration of the compound at which maximum internalization was observed. The internalization score for each apelin receptor agonist was plotted against the EC50 values for cAMP signaling and beta-arrestin signaling as shown in FIG. 2 and FIG. 3.

Molecule	Internalization Score
B19	0
B20	0
B21	0
B22	2 (100-1000)
B23	1 (>1000)
B24	1 (>1000)
B25	0
B26	2 (100-1000)
B27	2 (100-1000)
B28	2 (100-1000)

Reference: US20240383958A1, “APELIN RECEPTOR AGONISTS AND USES THEREOF” (VISTERRA, INC., priority 2023, published 2024)
